In article doi:10.1101/2020.06.03.132209 (bioRxiv, 2020):

Target: T1, Dehydrodolichyl diphosphate synthase (DHDDS), full length (1-333), untagged (human, UniProt Q86SQ9-1 1-333)
T1 sequence: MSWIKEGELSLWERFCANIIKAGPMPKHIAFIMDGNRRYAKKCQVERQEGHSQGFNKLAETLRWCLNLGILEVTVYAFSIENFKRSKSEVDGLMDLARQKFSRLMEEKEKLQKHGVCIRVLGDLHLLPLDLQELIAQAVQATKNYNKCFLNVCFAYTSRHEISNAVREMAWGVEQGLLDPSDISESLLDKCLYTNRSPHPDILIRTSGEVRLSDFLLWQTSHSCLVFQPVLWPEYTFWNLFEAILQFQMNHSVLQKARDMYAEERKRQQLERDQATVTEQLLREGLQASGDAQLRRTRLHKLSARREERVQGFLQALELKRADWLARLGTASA
Test: crystal structure

- binding result: binds
B1: NgBR^79-293 (Nogo-B receptor, N-terminal 78 amino acids deleted) (domain or fragment)
chain: AAAHHRMRWRADGRSLEKLPVHMGLVITEVEQEPSFSDIASLVVWCMAVGISYISVYDHQGIFKRNNSRLMDEILKQQQELLGLDCSKYSPEFANSNDKDDQVLNCHLAVKVLSPEDGKADIVRAAQDFCQLVAQKQKRPTDLDVDTLASLLSSNGCPDPDLVLKFGPVDSTLGFLPWHIRLTEIVSLPSHLNISYEDFFSALRQYAACEQRLGK
